Measured values from paper doi:10.1101/2024.07.22.604500.

Legend:
[1] = target: H1.0–K63-Ub2 chromatosome (CH2) (UniProt P07305)
[2] = target: H1.0–K63-Ub3 chromatosome (CH3) (UniProt P07305)
[3] = target: H1.0–Ub chromatosome (CH1) (UniProt P07305)
[4] = target: unmodified H1.0-containing chromatosome (CH0) (UniProt P07305)

RNF168^1–193 (from UniProt Q8IYW5 1-193) (domain or fragment)
H2A conversion in the in vitro ubiquitylation assay, 5 and 10 min (13% and 25%) [1]: 25%
H2A conversion in the in vitro ubiquitylation assay, 5 and 10 min (28% and 48%) [2]: 48%
H2A conversion in the in vitro ubiquitylation assay, 5 and 10 min (2% and 3%) [3]: 3%
H2A conversion in the in vitro ubiquitylation assay, 5 and 10 min (3% and 5%) [4]: 5%
